The data set in a line: Optimization of peptide reporters for LC/MS detection. Particulars: compared with other peptides of the same proteolytic-product group with longer or less hydrophilic caps; FIG. 8B. The text has this:
A series of peptides (A1-A14) of different sequence were investigated to determine optimal sequence length and charge density that would enable facile detection via LC/MS. Three representative proteolytic products, sequences GGVVVLS (SEQ ID NO: 19), GGPVG (SEQ ID NO: 13), and GGdFPipR (SEQ ID NO: 17) were selected and appended with peptide caps of differing length and charge density (FIG. 8A). The sequences were then detected via LC/MS. […] A hydrophilic molecule is a molecule that can transiently hydrogen-bond with water and is, thus, soluble in water and, in some embodiments, in other polar solvents. Hydrophilicity of peptides can be modulated according to methods well known in the art. In some embodiments, removal of the fluorescein tag will increase the hydrophilicity of the peptides reported in this disclosure. In some embodiments, modification of the sequences to contain positively charged residues (Histidine, Lysine, and Arginine) and/or negatively charged residues (glutamic acid and aspartic acid) will increase the hydrophilicity. […] Of the tested cap sequences Fl-dR-dS-dR (SEQ ID NO: 20) and Fl-dR-G-dS-dR (SEQ ID NO: 21) were determined to be advantageous. Accordingly, for non-fluorescent detection, the cap sequences dR-dS-dR (SEQ ID NO: 35) and dR-G-dS-dR (SEQ ID NO: 36) were determined to be advantageous. […]

Square brackets hold non-standard residues; d marks the D form. Ends that are not written are not given here. fluorescein = fluorescein label at the N-terminus

In the case of “Fl-dR-G-dS-dR (fluorescein-[dR]G[dS][dR])”, the “detection via LC/MS (normalized relative intensities of the peptide reporters)” value was “advantageous”. For the substance “Fl-dR-dS-dR (fluorescein-[dR]-[dS]-[dR])”, the “detection via LC/MS (normalized relative intensities of the peptide reporters)” value is listed as “advantageous”.

The record behind these values is US11703510B2, “Methods and products for in vivo enzyme profiling” (Massachusetts Institute of Technology, priority 2009, dated 2023).
